Assay [1] deals with FITC-labeled PDIA6 (mouse) (UniProt Q922R8). The assay can be described thus: MST.
Assay [2] concerns the target His-tagged IRE1α ER luminal domain (IRE1-NLD). The assay can be described thus: SPR. (Surface plasmon resonance follows binding to a sensor surface in real time, without labels.)

Regarding “His-tagged IRE1α ER luminal domain (IRE1-NLD) (domain or fragment)”, the equilibrium dissociation constant (Kd) – broadly, the constant that tells how readily two partners part at equilibrium – in assay [1] came out at 20 nM.

B1: PDIA6 isolated from mouse liver microsomal fraction (natural protein)
chain: LYSSSDDVIELTPSNFNREVIQSDGLWLVEFYAPWCGHCQRLTPEWKKAATALKDVVKVGAVNADKHQSLGGQYGVQGFPTIKIFGANKNKPEDYQGGRTGEAIVDAALSALRQLVKDRLGGRSGGYSSGKQGRGDSSSKKDVVELTDDTFDKNVLDSEDVWMVEFYAPWCGHCKNLEPEWAAAATEVKEQTKGKVKLAAVDATVNQVLASRYGIKGFPTIKIFQKGESPVDYDGGRTRSDIVSRALDLFSDNAPPPELLEIINEDIAKKTCEEHQLCVVAVLPHILDTGAAGRNSYLEVLLKLADKYKKKMWGWLWTEAGAQYELENALGIGGFGYPAMAAINARKMKFALLKGSFSEQGINEFLRELSFGRGSTAPVGGGSFPTITPREPWDGKDGELPVEDDIDLSDVELDDLEKDEL
With B1, in assay [2], the Kd was determined as 22 nM.

The values are drawn from publication PMC4984425.
